This note sets out measurements from article PMC11187062, “Structure of human DPPA3 bound to the UHRF1 PHD finger reveals its functional and structural differences from mouse DPPA3” (Communications Biology, 2024).

Residue numbers refer to the chain shown, from its start. Names may count otherwise. “And” between values parts separate entries of the source, which are not always exact repeats. Equal values may be shown once.

Common to all, as to conditions: both partners purified
Experiment [1] addresses T1, human UHRF1 PHD finger (residues 299-366) (human, UniProt Q96T88 299-366).
T1 construct: UHRF1 (ubiquitin-like PHD and RING finger domain-containing protein 1), human, PHD finger, residues 299-366; also called hPHD; hUHRF1 PHD finger; source: E. coli, expressed as a GST-fusion protein, purified (glutathione Sepharose 4B, HiTrap Q, Superdex 75)
T1 sequence (looked up): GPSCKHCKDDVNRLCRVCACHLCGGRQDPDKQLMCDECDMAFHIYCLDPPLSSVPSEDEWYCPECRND
Nature of the experiment: ITC; Microcal PEAQ-ITC, 293 K, 10 mM HEPES pH 7.5, 150 mM NaCl, 0.25 mM TCEP; one-site model; n = 3.

The target in another experiment is T2, hPHD M332A (human, UniProt Q96T88 299-366, M332A).
T2 construct: UHRF1, human, PHD finger, residues 299-366; also called M332A hPHD mutation; source: E. coli, site-directed mutant of hPHD; purification of the hPHD mutants not described separately
T2 sequence (looked up): T1 sequence (looked up) with M34A
Nature of the experiment: ITC; Microcal PEAQ-ITC, 293 K, 10 mM HEPES pH 7.5, 150 mM NaCl, 0.25 mM TCEP; one-site model; at least three independent titrations. (In ITC the heat of successive injections is recorded.)

Experiment [2] has as its target T3, human UHRF1 PHD finger, residues 299–366 (human, UniProt Q96T88 299-366).
T3 construct: UHRF1 (ubiquitin-like PHD and RING finger domain-containing protein 1), human, PHD finger, residues 299-366; 15N- or 13C,15N-labelled for NMR; also called hPHD; hUHRF1 PHD finger; source: E. coli, expressed as a GST-fusion protein, purified (glutathione Sepharose 4B, HiTrap Q, Superdex 75)
T3 sequence (looked up): T1 sequence (looked up)
The description is as above.

Experiment [3] deals with T3, human UHRF1 PHD finger, residues 299–366. Nature of the experiment: SEC-SAXS; 12 mg/ml hPHD:hDPPA3_(81-118) complex on Superdex 200 Increase 5/150 GL, 20 mM Tris-HCl pH 7.5, 150 mM NaCl, 2 mM DTT, 10 µM zinc acetate, 5% glycerol, 20 °C. A general note: SEC sorts molecules by how far they enter the pores of the column.
Experiment [4] concerns the target T4, human UHRF1 PHD finger, residues 299-366, M332A (human, UniProt Q96T88 299-366, M332A).
T4 construct: UHRF1, human, PHD finger, residues 299-366, with M332A; also called hPHD M332A; source: E. coli, expressed as a GST-fusion protein, purified
T4 sequence (looked up): T1 sequence (looked up) with M34A
Briefly: ITC; Microcal PEAQ-ITC, 293 K, 10 mM HEPES pH 7.5, 150 mM NaCl, 0.25 mM TCEP, one-site model; which partner was titrated is not stated; single titrations and their means.

Experiment [5] has as its target T5, human UHRF1 PHD finger, residues 299-366 (human, UniProt Q96T88 299-366).
T5 construct: UHRF1 (ubiquitin-like PHD and RING finger domain-containing protein 1), human, PHD finger, residues 299-366; also called hPHD; hUHRF1 PHD finger; source: E. coli, expressed as a GST-fusion protein, purified (glutathione Sepharose 4B, HiTrap Q, Superdex 75)
T5 sequence (looked up): T1 sequence (looked up)
Described as above.

Experiment [6] has as its target T1, human UHRF1 PHD finger (residues …). Nature of the experiment: ITC; Microcal PEAQ-ITC, 293 K, 10 mM HEPES pH 7.5, 150 mM NaCl, 0.25 mM TCEP; one-site model; n = 3. The source holds these as a separate data set.
Experiment [7] concerns the target T5, human UHRF1 PHD finger, residues 299-366. Briefly: ITC; Microcal PEAQ-ITC, 293 K, 10 mM HEPES pH 7.5, 150 mM NaCl, 0.25 mM TCEP, one-site model; which partner was titrated is not stated; single titrations and their means. The source holds these as a separate data set.

B1: K95P substituted hDPPA3_(81-118) (peptide, UniProt Q6W0C5 81-118, looked up)
chain: SRRGVRTLLSVQREPMARLRYMLLGGVRTHERRPTNKE
notes: also called K95P mutant of hDPPA3; source: bought: Toray Research Center (Tokyo, Japan)
B1 displayed a Kd in experiment [1] of 1260 nM.

B2: human DPPA3, residues 81–118 (recombinant) (domain or fragment)
chain: B1 chain with P15K
notes: Used for SAXS, NMR, CD, ITC and ubiquitination experiments; also called hDPPA3; source: E. coli BL21 (DE3), His-Ub fusion, purified (Ni Sepharose, YUH1 cleavage, HiTrap SP, Superdex 75)
For B2, the results for the Kd (with hPHD M332A; in experiment [2]) were 8070 nM and 868 nM, respectively. In addition, in experiment [3], the “stoichiometry N” value was 1.

B3: human DPPA3, residues 81-118 (domain or fragment)
chain: B1 chain with P15K
notes: also called hDPPA3 WT; source: E. coli BL21 (DE3), His-Ub fusion, purified (Ni Sepharose, YUH1 cleavage, HiTrap SP, Superdex 75)
As to B3, the Kd is 9490 nM and 6150 nM and 8570 nM in experiment [4]; 918 nM and 804 nM and 921 nM and 831 nM in experiment [5].

B4: hDPPA3 residues 81-118, M96A/L99A (peptide, UniProt Q6W0C5 81-118, looked up)
chain: B1 chain with P15K, M16A, L19A
notes: source: E. coli BL21 (DE3), purified (Ni Sepharose, His-Ub removed by YUH1, HiTrap SP, Superdex 75)
For the molecule B4, the Kd in experiment [6] amounted to 550 nM.

B5: hDPPA3_(81-118) T87A (domain or fragment, human, UniProt Q6W0C5 81-118, looked up)
chain: B1 chain with T7A, P15K
notes: source: E. coli BL21 (DE3), His-Ub fusion, purified by the same protocol as the wild type
Regarding B5, in experiment [2], the Kd stood at 16500 nM.

B6: human DPPA3, residues 81-118, M96A/L99A (domain or fragment, UniProt Q6W0C5 81-118, looked up)
chain: B1 chain with P15K, M16A, L19A
notes: also called hDPPA3_mutant3_M96AL99A; source: E. coli BL21 (DE3), His-Ub fusion, purified by the same protocol as the wild type
In the case of B6, the dissociation constant Kd in experiment [7] was 355 nM and 347 nM.

B7: hDPPA3 residues 81-118, R98A/M102A (peptide, UniProt Q6W0C5 81-118, looked up)
chain: B1 chain with P15K, R18A, M22A
notes: as for B4
As to B7, in experiment [6], the Kd came to 352 nM.

B8: human DPPA3, residues 81-118, L88A/V91A (domain or fragment, UniProt Q6W0C5 81-118, looked up)
chain: B1 chain with L8A, V11A, P15K
notes: DPPA3, human, with L88A and V91A; named only in the sheet; also called hDPPA3_mutant2_L88AV91A
For the molecule B8, the Kd in experiment [7] is 2890 nM and 1670 nM and 1870 nM.

B9: hDPPA3_(81-118) R86A (domain or fragment, human, UniProt Q6W0C5 81-118, looked up)
chain: B1 chain with R6A, P15K
notes: as for B5
Regarding B9, in experiment [2], the Kd came out at 20000 nM. This lies in the double-digit micromolar range.

B10: human DPPA3, residues 81-118, R98A/M102A (domain or fragment, UniProt Q6W0C5 81-118, looked up)
chain: B1 chain with P15K, R18A, M22A
notes: also called hDPPA3_mutant1_R98AM102A; source: E. coli BL21 (DE3), His-Ub fusion, purified by the same protocol as the wild type
Regarding B10, the Kd in experiment [7] is 639 nM and 460 nM and 552 nM.

B11: human DPPA3, residues 81-118, R93P/A97P (domain or fragment, UniProt Q6W0C5 81-118, looked up)
chain: B1 chain with R13P, P15K, A17P
notes: also called hDPPA3_mutant4_R93PA97P; source: E. coli BL21 (DE3), His-Ub fusion, purified by the same protocol as the wild type
As to B11, the Kd in experiment [7] is 11200 nM and 9620 nM and 7360 nM.

B12: hDPPA3_(81-118) R86A/T87A (domain or fragment, human, UniProt Q6W0C5 81-118, looked up)
chain: B1 chain with R6A, T7A, P15K
notes: as for B5
In the case of B12, the Kd in experiment [2] was more than 85000 nM.

B13: hDPPA3_(81-118) R93P/A97P (domain or fragment, human, UniProt Q6W0C5 81-118, looked up)
chain: B1 chain with R13P, P15K, A17P
notes: as for B5
As to B13, the equilibrium dissociation constant (Kd) in experiment [2] came out at 9390 nM. This lies in the single-digit micromolar range.

A word on the Kd: it is the concentration at which binding is half-saturated. High values mean a looser complex, low ones a tighter complex. Usually stoichiometry N stands for a count of units in the complex or per binding partner.
